Starred links: 1 amine or outer side, 2 acyl side, 3 side chain; linkers in the order of their positions; H or OH if unused. Non-standard residues stand in square brackets, D forms with d. No end group written: not given here. *: point of attachment. X4 = ((1S)-1-Carboxy-3-methylbutyl)carbamoyl, CC(C)C[C@H](NC(=O)*)C(=O)O; X10 = Tetrahydro‑2H‑pyran‑4‑yl‑carbamoyl, O=C(NC1CCOCC1)*; Imidazole4carbonyl = O=C(c1cnc[nH]1)*; Arg(Me) = CNC(=N)NCCC[C@H](N)C(=O)O; hArg = N=C(N)NCCCC[C@H](N)C(=O)O; tBuAla = CC(C)(C)C[C@H](N)C(=O)O; 4Pal = N[C@@H](Cc1ccncc1)C(=O)O; Cha = N[C@@H](CC1CCCCC1)C(=O)O; Isonicotinoyl = O=C(c1ccncc1)*; Suc = O=C(CCC(=O)[*:2])[*:1]; Iva = CC[C@](C)(N)C(=O)O; Nle = CCCC[C@H](N)C(=O)O; Aib = CC(C)(N)C(=O)O; Ahx = NCCCCCC(=O)O
B1: Ac-[D-Pro24, Iva25,28, Pya(4)26, Cha27,36, Lys30, Aib31]-PYY(23-36) (peptide)
peptide: Ac-S[dP][Iva][4Pal][Cha][Iva]NK[Aib]TRQR[Cha]-NH2
SMILES: CC[C@](C)(NC(=O)[C@H](CC1CCCCC1)NC(=O)[C@H](Cc1ccncc1)NC(=O)[C@](C)(CC)NC(=O)[C@H]1CCCN1C(=O)[C@H](CO)NC(C)=O)C(=O)N[C@@H](CC(N)=O)C(=O)N[C@@H](CCCCN)C(=O)NC(C)(C)C(=O)N[C@H](C(=O)N[C@@H](CCCNC(=N)N)C(=O)N[C@@H](CCC(N)=O)C(=O)N[C@@H](CCCNC(=N)N)C(=O)N[C@@H](CC1CCCCC1)C(N)=O)[C@@H](C)O
B2: 4-Pyridinecarbonyl-[D-Pro24, Iva25, Pya(4)26, Cha27,36, Aib28,31, Lys30]-PYY(23-36) (peptide)
peptide: Isonicotinoyl-S[dP][Iva][4Pal][Cha][Aib]NK[Aib]TRQR[Cha]-NH2
SMILES: CC[C@](C)(NC(=O)[C@H]1CCCN1C(=O)[C@H](CO)NC(=O)c1ccncc1)C(=O)N[C@@H](Cc1ccncc1)C(=O)N[C@@H](CC1CCCCC1)C(=O)NC(C)(C)C(=O)N[C@@H](CC(N)=O)C(=O)N[C@@H](CCCCN)C(=O)NC(C)(C)C(=O)N[C@H](C(=O)N[C@@H](CCCNC(=N)N)C(=O)N[C@@H](CCC(N)=O)C(=O)N[C@@H](CCCNC(=N)N)C(=O)N[C@@H](CC1CCCCC1)C(N)=O)[C@@H](C)O
B3: [(1S)-1-Carboxy-3-methylbutyl]carbamoyl-[Gln23, D-Pro24, Pya(4)26, Cha27,36, Aib28,31, Lys30]-PYY(23-36) (peptide)
peptide: X4-Q[dP]R[4Pal][Cha][Aib]NK[Aib]TRQR[Cha]-NH2
modifications: not fully specified; printed as [(1S)-1-Carboxy-3-methylbutyl]carbamoyl-[Gln23, D-Pro24, Pya(4)26, Cha27,36, Aib28,31, Lys30]-PYY(23-36)
B4: Ac-[Leu22, D-Pro24, Pya(4)26, Cha27,36, Aib28,31, Lys30]-PYY(22-36) (peptide)
peptide: Ac-LS[dP]R[4Pal][Cha][Aib]NK[Aib]TRQR[Cha]-NH2
SMILES: CC(=O)N[C@@H](CC(C)C)C(=O)N[C@@H](CO)C(=O)N1CCC[C@@H]1C(=O)N[C@@H](CCCNC(=N)N)C(=O)N[C@@H](Cc1ccncc1)C(=O)N[C@@H](CC1CCCCC1)C(=O)NC(C)(C)C(=O)N[C@@H](CC(N)=O)C(=O)N[C@@H](CCCCN)C(=O)NC(C)(C)C(=O)N[C@H](C(=O)N[C@@H](CCCNC(=N)N)C(=O)N[C@@H](CCC(N)=O)C(=O)N[C@@H](CCCNC(=N)N)C(=O)N[C@@H](CC1CCCCC1)C(N)=O)[C@@H](C)O
B5: Ac-[D-Pro24, Iva25, Pya(4)26, Cha27,36, Leu(Me)28, Lys30, Aib31]-PYY(23-36) (peptide)
peptide: Ac-S[dP][Iva][4Pal][Cha][tBuAla]NK[Aib]TRQR[Cha]-NH2
SMILES: CC[C@](C)(NC(=O)[C@H]1CCCN1C(=O)[C@H](CO)NC(C)=O)C(=O)N[C@@H](Cc1ccncc1)C(=O)N[C@@H](CC1CCCCC1)C(=O)N[C@@H](CC(C)(C)C)C(=O)N[C@@H](CC(N)=O)C(=O)N[C@@H](CCCCN)C(=O)NC(C)(C)C(=O)N[C@H](C(=O)N[C@@H](CCCNC(=N)N)C(=O)N[C@@H](CCC(N)=O)C(=O)N[C@@H](CCCNC(=N)N)C(=O)N[C@@H](CC1CCCCC1)C(N)=O)[C@@H](C)O
B6: Ac-[D-Pro24, Har25, Cha27,36, Aib28,31, Lys30]-PYY(23-36) (peptide)
peptide: Ac-S[dP][hArg]H[Cha][Aib]NK[Aib]TRQR[Cha]-NH2
SMILES: CC(=O)N[C@@H](CO)C(=O)N1CCC[C@@H]1C(=O)N[C@@H](CCCCNC(=N)N)C(=O)N[C@@H](Cc1c[nH]cn1)C(=O)N[C@@H](CC1CCCCC1)C(=O)NC(C)(C)C(=O)N[C@@H](CC(N)=O)C(=O)N[C@@H](CCCCN)C(=O)NC(C)(C)C(=O)N[C@H](C(=O)N[C@@H](CCCNC(=N)N)C(=O)N[C@@H](CCC(N)=O)C(=O)N[C@@H](CCCNC(=N)N)C(=O)N[C@@H](CC1CCCCC1)C(N)=O)[C@@H](C)O
B7: Ac-[Phe22, D-Pro24, Pya(4)26, Cha27,36, Aib28,31, Lys30]-PYY(22-36) (peptide)
peptide: Ac-FS[dP]R[4Pal][Cha][Aib]NK[Aib]TRQR[Cha]-NH2
SMILES: CC(=O)N[C@@H](Cc1ccccc1)C(=O)N[C@@H](CO)C(=O)N1CCC[C@@H]1C(=O)N[C@@H](CCCNC(=N)N)C(=O)N[C@@H](Cc1ccncc1)C(=O)N[C@@H](CC1CCCCC1)C(=O)NC(C)(C)C(=O)N[C@@H](CC(N)=O)C(=O)N[C@@H](CCCCN)C(=O)NC(C)(C)C(=O)N[C@H](C(=O)N[C@@H](CCCNC(=N)N)C(=O)N[C@@H](CCC(N)=O)C(=O)N[C@@H](CCCNC(=N)N)C(=O)N[C@@H](CC1CCCCC1)C(N)=O)[C@@H](C)O
B8: 4-Imidazolecarbonyl-[D-Pro24, Nle25, Pya(4)26, Cha27,36, Aib28,31, Lys30]-PYY(23-36) (peptide)
peptide: Imidazole4carbonyl-S[dP][Nle][4Pal][Cha][Aib]NK[Aib]TRQR[Cha]-NH2
SMILES: CCCC[C@H](NC(=O)[C@H]1CCCN1C(=O)[C@H](CO)NC(=O)c1cnc[nH]1)C(=O)N[C@@H](Cc1ccncc1)C(=O)N[C@@H](CC1CCCCC1)C(=O)NC(C)(C)C(=O)N[C@@H](CC(N)=O)C(=O)N[C@@H](CCCCN)C(=O)NC(C)(C)C(=O)N[C@H](C(=O)N[C@@H](CCCNC(=N)N)C(=O)N[C@@H](CCC(N)=O)C(=O)N[C@@H](CCCNC(=N)N)C(=O)N[C@@H](CC1CCCCC1)C(N)=O)[C@@H](C)O
B9: Ac-[D-Pro24, Lys(Ac)25, Pya(4)26, Cha27,36, Aib28,31, Lys30]-PYY(23-36) (peptide)
peptide: Ac-S[dP]K(Ac)[4Pal][Cha][Aib]NK[Aib]TRQR[Cha]-NH2
SMILES: CC(=O)NCCCC[C@H](NC(=O)[C@H]1CCCN1C(=O)[C@H](CO)NC(C)=O)C(=O)N[C@@H](Cc1ccncc1)C(=O)N[C@@H](CC1CCCCC1)C(=O)NC(C)(C)C(=O)N[C@@H](CC(N)=O)C(=O)N[C@@H](CCCCN)C(=O)NC(C)(C)C(=O)N[C@H](C(=O)N[C@@H](CCCNC(=N)N)C(=O)N[C@@H](CCC(N)=O)C(=O)N[C@@H](CCCNC(=N)N)C(=O)N[C@@H](CC1CCCCC1)C(N)=O)[C@@H](C)O
B10: [Acp23, D-Pro24, Pya(4)26, Cha27,36, Aib28,31, Lys30]-PYY(23-36) (peptide)
peptide: [Ahx][dP]R[4Pal][Cha][Aib]NK[Aib]TRQR[Cha]-NH2
modifications: not fully specified (N-terminus); printed as Ac-Acp-D-Pro-Arg-Pya(4)-Cha-Aib-Asn-Lys-Aib-Thr-Arg-Gln-Arg-Cha-NH2
B11: Ac-[D-Pro24, Arg(Me)25, Cha27,36, Aib28,31, Lys30]-PYY(23-36) (peptide)
peptide: Ac-S[dP][Arg(Me)]H[Cha][Aib]NK[Aib]TRQR[Cha]-NH2
SMILES: CNC(=N)NCCC[C@H](NC(=O)[C@H]1CCCN1C(=O)[C@H](CO)NC(C)=O)C(=O)N[C@@H](Cc1c[nH]cn1)C(=O)N[C@@H](CC1CCCCC1)C(=O)NC(C)(C)C(=O)N[C@@H](CC(N)=O)C(=O)N[C@@H](CCCCN)C(=O)NC(C)(C)C(=O)N[C@H](C(=O)N[C@@H](CCCNC(=N)N)C(=O)N[C@@H](CCC(N)=O)C(=O)N[C@@H](CCCNC(=N)N)C(=O)N[C@@H](CC1CCCCC1)C(N)=O)[C@@H](C)O
B12: 3-Carboxypropionyl-[D-Pro24, Pya(4)26, Cha27,36, Aib28,31, Lys30]-PYY(24-36) (peptide)
peptide: Suc-[dP]R[4Pal][Cha][Aib]NK[Aib]TRQR[Cha]-NH2
SMILES: C[C@@H](O)[C@H](NC(=O)C(C)(C)NC(=O)[C@H](CCCCN)NC(=O)[C@H](CC(N)=O)NC(=O)C(C)(C)NC(=O)[C@H](CC1CCCCC1)NC(=O)[C@H](Cc1ccncc1)NC(=O)[C@H](CCCNC(=N)N)NC(=O)[C@H]1CCCN1C(=O)CCC(=O)O)C(=O)N[C@@H](CCCNC(=N)N)C(=O)N[C@@H](CCC(N)=O)C(=O)N[C@@H](CCCNC(=N)N)C(=O)N[C@@H](CC1CCCCC1)C(N)=O
B13: [(1S)-1-Carboxy-3-methylbutyl]carbamoyl-[Glu23, D-Pro24, Pya(4)26, Cha27,36, Aib28,31, Lys30]-PYY(23-36) (peptide)
peptide: X4-E[dP]R[4Pal][Cha][Aib]NK[Aib]TRQR[Cha]-NH2
SMILES: CC(C)C[C@H](NC(=O)N[C@@H](CCC(=O)O)C(=O)N1CCC[C@@H]1C(=O)N[C@@H](CCCNC(=N)N)C(=O)N[C@@H](Cc1ccncc1)C(=O)N[C@@H](CC1CCCCC1)C(=O)NC(C)(C)C(=O)N[C@@H](CC(N)=O)C(=O)N[C@@H](CCCCN)C(=O)NC(C)(C)C(=O)N[C@H](C(=O)N[C@@H](CCCNC(=N)N)C(=O)N[C@@H](CCC(N)=O)C(=O)N[C@@H](CCCNC(=N)N)C(=O)N[C@@H](CC1CCCCC1)C(N)=O)[C@@H](C)O)C(=O)O
B14: Tetrahydro-2H-pyran-4-yl-carbamoyl-[Glu23, D-Pro24, Pya(4)26, Cha27,36, Aib28,31, Lys30]-PYY(23-36) (peptide)
peptide: X10-E[dP]R[4Pal][Cha][Aib]NK[Aib]TRQR[Cha]-NH2
SMILES: C[C@@H](O)[C@H](NC(=O)C(C)(C)NC(=O)[C@H](CCCCN)NC(=O)[C@H](CC(N)=O)NC(=O)C(C)(C)NC(=O)[C@H](CC1CCCCC1)NC(=O)[C@H](Cc1ccncc1)NC(=O)[C@H](CCCNC(=N)N)NC(=O)[C@H]1CCCN1C(=O)[C@H](CCC(=O)O)NC(=O)NC1CCOCC1)C(=O)N[C@@H](CCCNC(=N)N)C(=O)N[C@@H](CCC(N)=O)C(=O)N[C@@H](CCCNC(=N)N)C(=O)N[C@@H](CC1CCCCC1)C(N)=O
B15: 4-Imidazolecarbonyl-[D-Pro24, Iva25, Pya(4)26, Cha27,36, Aib28,31, Lys30]-PYY(23-36) (peptide)
peptide: Imidazole4carbonyl-S[dP][Iva][4Pal][Cha][Aib]NK[Aib]TRQR[Cha]-NH2
SMILES: CC[C@](C)(NC(=O)[C@H]1CCCN1C(=O)[C@H](CO)NC(=O)c1cnc[nH]1)C(=O)N[C@@H](Cc1ccncc1)C(=O)N[C@@H](CC1CCCCC1)C(=O)NC(C)(C)C(=O)N[C@@H](CC(N)=O)C(=O)N[C@@H](CCCCN)C(=O)NC(C)(C)C(=O)N[C@H](C(=O)N[C@@H](CCCNC(=N)N)C(=O)N[C@@H](CCC(N)=O)C(=O)N[C@@H](CCCNC(=N)N)C(=O)N[C@@H](CC1CCCCC1)C(N)=O)[C@@H](C)O

Target: human Y2 receptor (human) (UniProt P49146)
Sequence (P49146 whole entry): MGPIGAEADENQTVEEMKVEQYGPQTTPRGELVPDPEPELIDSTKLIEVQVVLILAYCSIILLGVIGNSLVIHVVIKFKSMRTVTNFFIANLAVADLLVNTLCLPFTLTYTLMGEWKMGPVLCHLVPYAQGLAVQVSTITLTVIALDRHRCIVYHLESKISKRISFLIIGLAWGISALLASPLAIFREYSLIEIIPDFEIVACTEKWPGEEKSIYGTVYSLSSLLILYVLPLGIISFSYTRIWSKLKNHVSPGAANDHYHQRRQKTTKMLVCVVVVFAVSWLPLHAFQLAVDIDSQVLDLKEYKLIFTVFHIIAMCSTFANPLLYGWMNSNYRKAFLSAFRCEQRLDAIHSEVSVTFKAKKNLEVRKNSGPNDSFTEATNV
Assay: RBA: displacement of [125I]-PYY from hY2R/CHO membranes

| Binder | IC50 Ratio (IC50 compound/IC50 PYY(3-36)) |
| --- | --- |
| B1 | 1.1 |
| B2 | 1 |
| B3 | 0.93 |
| B4 | 1.2 |
| B5 | 0.76 |
| B6 | 1.2 |
| B7 | 1.2 |
| B8 | 1.7 |
| B9 | 6.6 |
| B10 | 0.32 |
| B11 | 1.8 |
| B12 | 1.2 |
| B13 | 2.2 |
| B14 | 1.1 |
| B15 | 0.77 |

Target: human Y2 receptor (human) (UniProt P49146)
Assay: cell-based or functional assay

| Binder | GBA EC50 Ratio ([35S]GTPγS binding) (EC50 compound/EC50 PYY(3-36)) |
| --- | --- |
| B1 | 1 |
| B2 | 1.1 |
| B3 | 1.3 |
| B4 | 1 |
| B5 | 1.2 |
| B6 | 2.7 |
| B7 | 0.89 |
| B8 | 1.2 |
| B9 | 4.2 |
| B10 | 1.1 |
| B11 | 1.8 |
| B12 | 1.2 |
| B13 | 2.5 |
| B14 | 1.6 |
| B15 | 0.91 |

Source: patent US20120172293A1 (Takeda / Millennium, published 2012)
